Measurements reported in article PMC7617739, “Seo1p, a high-affinity, plasma membrane transporter of the γ-Glu-met dipeptide in yeasts and fungi” (The Journal of Biological Chemistry, 2025).

Substrate: CSCC[C@H](NC(=O)CC[C@H](N)C(=O)O)C(=O)O
Test: cells, lysate or membranes

B1: Seo1p (Saccharomyces cerevisiae S288C) (protein)
chain: MYSIVKEIIVDPYKRLKWGFIPVKRQVEDLPDDLNSTEIVTISNSIQSHETAENFITTTSEKDQLHFETSSYSEHKDNVNVTRSYEYRDEADRPWWRFFDEQEYRINEKERSHNKWYSWFKQGTSFKEKKLLIKLDVLLAFYSCIAYWVKYLDTVNINNAYVSGMKEDLGFQGNDLVHTQVMYTVGNIIFQLPFLIYLNKLPLNYVLPSLDLCWSLLTVGAAYVNSVPHLKAIRFFIGAFEAPSYLAYQYLFGSFYKHDEMVRRSAFYYLGQYIGILSAGGIQSAVYSSLNGVNGLEGWRWNFIIDAIVSVVVGLIGFYSLPGDPYNCYSIFLTDDEIRLARKRLKENQTGKSDFETKVFDIKLWKTIFSDWKIYILTLWNIFCWNDSNVSSGAYLLWLKSLKRYSIPKLNQLSMITPGLGMVYLMLTGIIADKLHSRWFAIIFTQVFNIIGNSILAAWDVAEGAKWFAFMLQCFGWAMAPVLYSWQNDICRRDAQTRAITLVTMNIMAQSSTAWISVLVWKTEEAPRYLKGFTFTACSAFCLSIWTFVVLYFYKRDERNNAKKNGIVLYNSKHGVEKPTSKDVETLSVSDEK
B1 showed a Km of 48 µM.
